Experimental findings from doi:10.1101/2021.04.01.438122 are described below.

The assay addresses human Angiotensin Converting Enzyme 2 (amino acids 19-615) fused to human IgG Fc (human) (UniProt Q9BYF1). The assay is described as follows: SPR. (In general: Surface plasmon resonance follows binding to a sensor surface in real time, without labels.)

For the substance “SARS-CoV-2 receptor binding domain (RBD amino acids 330-532) with the Y489R mutation (domain or fragment)”, the reduction of binding against RBD-WT was 94%.
